Source: patent US20090233993A1, “COMPOSITIONS AND METHODS FOR INHIBITING GSK3 ACTIVITY AND USES THEREOF” (Burnham Institute for Medical Research, priority 2008, published 2009)
“Also recorded” adds a separate entry of the source.

Columns and labels:
CDK5 [1] = test: CDK5 levels by Western blot in transfected HeLa and MFB cells; type: cell-based, mouse and human; settings: FG01-transfected HeLa and MFB cells
Source text: The expression of CDK5, FG01 and α-tubulin were detected by Western blots in transfected HeLa and MFB cells.

Aβ generation = Aβ generation / APP processing in N2aSwe cells overexpressing FG01 (IP-Western blot); type: cell-based, mouse
Method: To investigate FG01's effects on Aβ generation, the His6-tagged recombinant FG01 was overexpressed in N2aSwe cells. The levels of βCTF, APP, sAPPα and secreted and intracellular Aβ were then quantified in the transfected cells and compared to those parental cells.
The His6-tagged FG01 was overexpressed in N2aSwe cells. The secreted and intracellular Aβ were immunoprecipitated by 4G8. The precipitated peptides and sAPPα, βCTF, full length APP and FG01 were analyzed by Western blots. α-tubulin was used as loading control. The levels of the proteins were quantified by densitometry and normalized and compared to those in vector transfected control.
To corroborate this, FG01 was over expressed in N2aSwe cells.

CDK5 [2] = test: CDK5 protein level and in vitro activity in N2a cells; type: cell-based, mouse; settings: FG01 overexpression
Method: The in vitro activity of CDK5 was assayed as described (Han et al., 2005). Briefly, CDK5 protein was immunoprecipitated and incubated with histone-H1 in [γ-^32P]ATP-containing buffer. After reaction termination, samples were subjected to SDS-PAGE and autoradiography. Results were quantified using a PhosphoImager (Molecular Dynamics).
GSK-3 is a major kinase that phosphorylates tau in AD (Flaherty et al., 2000). […] N2aSwe cells were cotransfected with the human tau splice variant T40 and with FG01 (or control vectors), and examined tau phosphorylation at the threonine 205 site (Thr205) and the PHF-1 tau epitope sites (serine 396 and serine 404), which are GSK-3 phosphorylation targets, and at the major paired helical filament (PHF) sites found in NFTs. […] Protein levels and activity of CDK5, another kinase mediating tau phosphorylation in AD (Flaherty et al., 2000), was analyzed following FG01 overexpression. […] N2a cells were transfected with FG01 or a control vector (Con). Equal cell lysate proteins were used for assaying in vitro CDK5 activity.

PKA [3] = test: PKA in vitro activity and CREB phosphorylation in FG01-transfected cells; type: cell-based, mouse
Method: After lysis, cell lysates were assayed for PKA activity, using a commercial kit and following the manufacturer's protocol (Upstate, catalog number 17-134). n=4.
Commercial kits were used to assay in vitro activities of GSK-3β (Sigma) and PKA (Upstate). For GSK-3α activity, a commercial GSK-3β activity assay kit was used but the procedure to immunoprecititate GSK-3β was replaced with immunoprecipitation of GSK-3α using an anti-GSK-3α antibody (Cell Signaling). cAMP levels were assayed using a commercial kit (Biovision).
Inhibition of GSK-3 activity via phosphorylation of serine 21 in GSK-3α and serine 9 in GSK-3β can be mediated by protein kinase A (PKA) (Fang et al., 2000), so whether FG01 regulates PKA activity was studied. […] Moreover, increased sAPPα secretion upon FG01 overexpression (FIG. 29A) is also likely due to PKA activation, because PKA can stimulate budding of APP-containing vesicles from the Trans-Golgi Network (TGN) and facilitates sAPPα generation (Xu et al., 1996).

PKA [4] = test: PKA inhibitor H89 treatment of FG01-transfected N2aSwe cells; type: cell-based, mouse; settings: FG01-transfected cells treated with H89
Method: After 48 hr incubation, cell media were changed to Opti-MEM (Invitrogen) containing DMSO or a PKA activity inhibitor H89 (2 μM) and cells were incubated for additional 4 hrs. The cell media were used for Aβ immunoprecipitation-Western blotting and cell lysates were subjected to Western blotting for p-CREB (substrate for PKA) and p-GSK3β. As shown, inhibiting PKA activity with H89 prevented serine phosphorylation of CREB and GSK3β by FG01.
N2aSwe cells were transfected with control vector or FG01 and then equally split. Four hours before collection, cells were treated with the GSK-3 inhibitor lithium chloride (5 mM) or sodium chloride (5 mM, as control). Alternatively, cells were treated with a PKA inhibitor H89 at 10 μM or with DMSO for control.

GSK-3α/β [5] = test: phospho-GSK-3α (Ser21)/GSK-3β (Ser9) Western blot in mouse N2a/N2aSwe cells; type: cell-based
Source text: The accumulation of βCTF can also be attributed to decrease in γ-secretase cleavage. However, the Notch cleavage was not altered by overexpression of the recombinant FG01 (FIG. 9A). […] Thus, the activities of GSK-3α/β were examined with or without overexpressing FG01. First, the levels of phospho-GSK3α at Ser21 and GSK-3β at Ser9 (the inactivated forms of GSK3) were quantified using the specific antibodies.
The levels of the recombinant Notch (NotchΔE with Myc-tag) and the γ-secretase cleaved Notch fragment (NICD) were quantified by Western blotting using myc antibody and an antibody specific to processed Notch followed by densitometry. […] The results represent at least four independent experiments.
The levels of total GSK-3 were used as normalization factors.
(§1) Although the possibility that FG01 may modulate substrate specificity or accessibility to γ-secretase can not be excluded, it is equally possible that FG01 regulates other proteins/pathways functioning in APP processing and Aβ generation. […] Thus, the activities of GSK-3α/β were studied in the presence or absence of FG01 overexpression by examining levels of phospho-GSK-3α (Ser 21) and phospho-GSK-3β (Ser 9) (which represent inactivated forms of GSK-3) and by in vitro kinase assays.

GSK-3α/β [6] = test: phospho-GSK-3α/β Western blot in human HeLaSwe and HEK293 cells; type: cell-based
Source text: Expression of β-catenin, inactivated phospho-GSK-3β, total GSK-3, APP, β-CTF and FG01 in transfected human HEK293 cells were shown by Western blots.
as §1

[7] = FG01-transfected N2aSwe cells, 5 mM LiCl 4 hrs
[8] = FG01 overexpression in N2aSwe cells

B1: FG01: 141 amino acid transmembrane protein encoded by mouse retrogene fg01 (SEQ ID NO:2); expressed from transfected vector or transgene (protein)
chain: MQSQQRNIGYFNHLKADSRNITYSMTFSTKSSNQNFIIFLNEVQAAIIGHERCDLLPVLNELHPDALPDGRIWLFGLNPYFFQHNSLCMRGTPKRIGLQGCAQVGFLVLFVMPLLIPSVTAELPGSSETTTLAHLAGATGP
modifications: Myc and His6 tags; homo sapien
notes: expressed from transfected vector or transgene
- levels of CDK5 (CDK5 [1]): did not change
- Aβ production in the presence of lithium (Aβ generation; [7]): could not further reduce
- levels of extracellular and intracellular Aβ (Aβ generation; [8]): dramatically reduced
- levels of total APP (Aβ generation; [8]): not affected
- sAPPα level (Aβ generation; [8]): stimulated; also recorded: greatly increased
- βCTF level (Aβ generation; [8]): greatly accumulated; also recorded: greatly increased
- levels of secreted and intracellular Aβ, reduction (Aβ generation; His6-tagged FG01 overexpressed in N2aSwe cells vs control, Aβ40 and 42 equally reduced): more than 50%
- Aβ levels in LiCl-pretreated cells (Aβ generation; N2a/swe cells pretreated with 5 mM LiCl for 24 hrs before FG01 transfection): did not further decrease
- CDK5 in vitro activity (CDK5 [2]): Little change
- CDK5 protein level (CDK5 [2]): Little change
- PKA activity (PKA [3]; FG01-transfected N2a/Swe cells vs control): significantly increase; also recorded: significantly more PKA activity
- phosphorylation of CREB (PKA substrate) (PKA [3]; FG01 overexpression): increased
- inhibition of Aβ generation when PKA suppressed by H89 (PKA [4]): failed to inhibit
- inhibition of GSK-3 activity when PKA suppressed by H89 (PKA [4]): failed to inhibit
- GSK-3α/β activity in the presence of lithium (GSK-3α/β [5]; [7]): could not further reduce
- GSK-3 activities (inactivated phospho-GSK-3β) (GSK-3α/β [5]; FG01 overexpression, mouse N2a cells, Western blot): decreases
- phospho-GSK-3α (Ser21) and phospho-GSK-3β (Ser9) levels (inactivated forms) (GSK-3α/β [5]; FG01 overexpression, mouse N2aSwe cells): more GSK-3α/β were phosphorylated; also recorded: more highly phosphorylated
- GSK-3 activities (inactivated phospho-GSK-3β) (GSK-3α/β [6]; FG01 expression, human HEK293 cells, Western blot): decreases
- phospho-GSK-3α (Ser21) and phospho-GSK-3β (Ser9) levels (GSK-3α/β [6]; FG01 overexpression, human HeLaSwe and HEK293 cells): more highly phosphorylated
